The record followed here is patent publication US20200392219A1, “EXTRACELLULAR VESICLES COMPRISING MEMBRANE-TETHERED TGF-BETA, COMPOSITIONS AND METHODS OF USE THEREOF” (TRUSTEES OF TUFTS COLLEGE, priority 2017, published 2020).

The assay relates to CD4+ T cells (ConA-stimulated PBMC). The assay can be described thus: ConA mitogen-induced CD4+ T cell proliferation in CFSE-stained PBMC (PBMC responder/suppression assay). Format: cell-based, canine. To be noted: for effect of pre-treating WJ-MSC EV on their suppression of CD4+ T cell division: 0.1% Triton-X, 2 μg/ml RNAse A, proteinase K 30 min 37°C, heparinase 0.006 U/ml 3 hours, 10^4 EV:1 PBMC. As to the method:
Serum-free culture medium from canine Wharton's Jelly mesenchymal stem cells (WJ-MSC: CD44^+, CD90^+, CD34^−, CD45^−, MHCII^−, n=6 cell lines) was collected after 48 hours, and extracellular vesicles (WJ-EV) were isolated by differential centrifugation. WJ-EV output was assessed using single vesicle nanoparticle tracking analysis (NTA). CFSE-stained peripheral blood mononuclear cells (PBMC) were collected from healthy dogs (n=8), exposed to Concanavalin A mitogen (ConA; 5 μg/ml) and co-incubated with WJ-MSC (1:10) across transwell membrane (0.4 μm pore size) or with WJ-MSC EV (1:10^4)±10 μM SB431542 (TGFβR1 inhibitor) or TGF-β neutralizing (e.g., inhibiting) antibody (Ab) for 72 hours. Analysis of CFSE fluorescence using FlowJo (v7.6.5) yielded % CD4^+ cells that had undergone division (T-cell proliferation).
PBMC responder assay: Twelve healthy adult purpose-bread Beagle dogs (5 neutered males, 7 spayed females) housed at the Laboratory Animal Medicine department at the Cummings School of Veterinary Medicine at Tufts University served as blood donors under an approved protocol. […] or WJ-MSC were tested in triplicate against a minimum of 3 different PBMC donor cell samples (see Figure legends for ‘n’ of each experiment). Healthy status was confirmed by clinical examination, and hematological and serum biochemical testing within six months of blood sampling. All dogs were fasted for 12 hours prior to peripheral blood sampling. Peripheral blood samples were taken via jugular venipuncture using a 21 gauge needle, and blood was immediately placed into an EDTA collection tube and rotated 1-2 times gently. Blood was diluted 1:1 with cold PBS or centrifuged (1300×g, 10 min) prior to dilution 1:2 in PBS, followed by density-gradient centrifugation using Ficoll-Paque (density 1.077; GE Healthcare Life Sciences) to harvest peripheral blood mononuclear cells (PBMC). PBMC were washed in RPMI (Life Technologies) supplemented with 10% heat-inactivated fetal bovine serum (Gibco), […] (Life Technologies), 100 μM β-mercaptoethanol (Sigma-Aldrich), 10,000 U/ml penicillin-streptomycin, 2 mM L-glutamine (Life Technologies), and 2.2 mg/mL of sodium bicarbonate (Thermo Fisher Scientific) (complete RPMI, ‘cRPMI’). For mitogen induced lymphocytes proliferation assays, PBMC were suspended in 1 ml cRPMI and 0.5 μof 10 mM carboxyfluorescein succinimidyl ester (CFSE, Thermo Fisher Scientific) and were incubated (10 min). For initial characterization of WJ-MSC effects on responder PBMC, PBMC were plated on a 24-well plate on the top of a 0.4 μm Transwell (Corning) across from the WJ-MSC in a 10:1 ratio (PBMC:MSC) in a total volume of 1 ml medium (n=3 technical replicates/sample). All plates were incubated at 37° C. in the dark for 72 hours prior to analysis.
Dose-responses of TV MSC-EV: To investigate the dose response of PBMC to WJ-MSC EV, the […] were plated on a 96-well plate in cRPMI with addition of 1 mM ATP, with or without 5 μg/ml Concanavalin A (ConA, Sigma-Aldrich). Responder PBMC were incubated with WJ-MSC EV in a total volume of 200 μL medium (n=3 technical replicates per sample). PBMC were incubated with WJ-MSC EV in a 1:10^2, 1:10^3, or 1:10^4 (PBMC:EV) ratio. After 72 hours of incubation, the PBMC were collected and surface stained for CD4 (rat anti-canine CD4-Alexa 647, clone YKIX302.9, AbD Serotec). Cells were stained for 30 minutes, washed twice with cold PBS and 5% FBS, and resuspended in 200 μl PBS and 5% FBS with 5 μl 7AAD (Becton Dickinson) for analysis by flow cytometry (Accuri C6, Becton Dickinson). The effect of WJ-MSC or WJ-MSC EV on CD4-positive (CD4^+) T cell (i.e., T helper cell) proliferation (percentage of cells proliferating, number of divisions for proliferating cells) was measured by evaluating CFSE fluorescence utilizing the FlowJo® proliferation platform (FlowJo, V10, Ashland, Oreg.) after gating on the viable CD4^+ lymphocyte population. […]

B1: proteinase K: protease used with RNAse A to pre-treat EV (protein, UniProt P06873 106-384, looked up)
Proteinase K: AAQTNAPWGLARISSTSPGTSTYYYDESAGQGSCVYVIDTGIEASHPEFEGRAQMVKTYYYSSRDGNGHGTHCAGTVGSRTYGVAKKTQLFGVKVLDDNGSGQYSTIIAGMDFVASDKNNRNCPKGVVASLSLGGGYSSSVNSAAARLQSSGVMVAVAAGNNNADARNYSPASEPSVCTVGASDRYDRRSSFSNYGSVLDIFGPGTSILSTWIGGSTRSISGTSMATPHVAGLAAYLMTLGKTTAASACRYIADTANKGDLSNIPFGTVNLLAYNNYQA
On to B1, for which the “effect of pre-treating WJ-MSC EV on their suppression of CD4+ T cell division” value (from here on “effect of pre-treating WJ-MSC EV”) is reported as “reduced”.

B2: TGF-β3: recombinant human TGF-β3 (Sigma) (protein, UniProt P10600 301-412, looked up)
Transforming growth factor …: ALDTNYCFRNLEENCCVRPLYIDFRQDLGWKWVHEPKGYYANFCSGPCPYLRSADTTHSTVLGLYNTLNPEASASPCCVPQDLEPLTILYYVGRTPKVEQLSNMVVKSCKCS
For B2, the “suppression of mitogen driven T cell division by exogenous TGF-β” value is on record as “not” (5 ng/ml added to ConA stimulated PBMC), “suppressed” (10 ng/ml added to ConA stimulated PBMC) and “suppressed” (50 ng/ml added to ConA stimulated PBMC).

B3: heparinase: heparinase III (Sigma), disrupts heparin sulfate side chains on beta-glycan (protein, UniProt Q59289 25-659, looked up)
Heparin-sulfate lyase: QSSSITRKDFDHINLEYSGLEKVNKAVAAGNYDDAAKALLAYYREKSKAREPDFSNAEKPADIRQPIDKVTREMADKALVHQFQPHKGYGYFDYGKDINWQMWPVKDNEVRWQLHRVKWWQAMALVYHATGDEKYAREWVYQYSDWARKNPLGLSQDNDKFVWRPLEVSDRVQSLPPTFSLFVNSPAFTPAFLMEFLNSYHQQADYLSTHYAEQGNHRLFEAQRNLFAGVSFPEFKDSPRWRQTGISVLNTEIKKQVYADGMQFELSPIYHVAAIDIFLKAYGSAKRVNLEKEFPQSYVQTVENMIMALISISLPDYNTPMFGDSWITDKNFRMAQFASWARVFPANQAIKYFATDGKQGKAPNFLSKALSNAGFYTFRSGWDKNATVMVLKASPPGEFHAQPDNGTFELFIKGRNFTPDAGVFVYSGDEAIMKLRNWYRQTRIHSTLTLDNQNMVITKARQNKWETGNNLDVLTYTNPSYPNLDHQRSVLFINKKYFLVIDRAIGEATGNLGVHWQLKEDSNPVFDKTKNRVYTTYRDGNNLMIQSLNADRTSLNEEEGKVSYVYNKELKRPAFVFEKPKKNAGTQNFVSIVYPYDGQKAPEISIRENKGNDFEKGKLNLTLTINGKQQLVLVP
Turning to B3, the “effect of pre-treating WJ-MSC EV” value is on record as “reduced EV suppression”.

B4: heat-inactivated heparinase: heat-inactivated heparinase (control) (protein, UniProt Q59289 25-659, looked up)
Heparin-sulfate lyase: QSSSITRKDFDHINLEYSGLEKVNKAVAAGNYDDAAKALLAYYREKSKAREPDFSNAEKPADIRQPIDKVTREMADKALVHQFQPHKGYGYFDYGKDINWQMWPVKDNEVRWQLHRVKWWQAMALVYHATGDEKYAREWVYQYSDWARKNPLGLSQDNDKFVWRPLEVSDRVQSLPPTFSLFVNSPAFTPAFLMEFLNSYHQQADYLSTHYAEQGNHRLFEAQRNLFAGVSFPEFKDSPRWRQTGISVLNTEIKKQVYADGMQFELSPIYHVAAIDIFLKAYGSAKRVNLEKEFPQSYVQTVENMIMALISISLPDYNTPMFGDSWITDKNFRMAQFASWARVFPANQAIKYFATDGKQGKAPNFLSKALSNAGFYTFRSGWDKNATVMVLKASPPGEFHAQPDNGTFELFIKGRNFTPDAGVFVYSGDEAIMKLRNWYRQTRIHSTLTLDNQNMVITKARQNKWETGNNLDVLTYTNPSYPNLDHQRSVLFINKKYFLVIDRAIGEATGNLGVHWQLKEDSNPVFDKTKNRVYTTYRDGNNLMIQSLNADRTSLNEEEGKVSYVYNKELKRPAFVFEKPKKNAGTQNFVSIVYPYDGQKAPEISIRENKGNDFEKGKLNLTLTINGKQQLVLVP
modifications: heat-inactivated
On to B4, for which the “effect of pre-treating WJ-MSC EV” value was “absent”.

B5: RNase: RNAse A enzyme used to pre-treat EV (protein, UniProt P61823 27-150, looked up)
Ribonuclease pancreatic: KETAAAKFERQHMDSSTSAASSSNYCNQMMKSRNLTKDRCKPVNTFVHESLADVQAVCSQKNVACKNGQTNCYQSYSTMSITDCRETGSSKYPNCAYKTTQANKHIIVACEGNPYVPVHFDASV
Take B5: the “effect of pre-treating WJ-MSC EV” value is “reduced”.
